Reference: the supplement of paper PMC9112550, “Optimization of the antimicrobial peptide Bac7 by deep mutational scanning” (BMC Biology, 2022)

System: Escherichia coli TOP10
Assay: shrunken log2 fold change of peptide-encoding DNA abundance (4.5 h post-induction vs induction); higher = less antimicrobial activity (less host growth inhibition)
Settings: time post-induction: 4.5 h; library: site-saturation at positions 5, 18, 19, 20
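Note: peptides expressed intracellularly from a pBAD plasmid library in pooled LB shake-flask culture, induced with 0.3% L-arabinose, DNA abundance read by NGS, three biological replicates, DESeq2 with apeglm shrinkage.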

Row | Sequence | shrunken log2 fold change
1 | RRIRPRPPRLPRPRPRPVLGPRP | 0.122
2 | RRIRPRPPRLPRPRPRPVMEPRP | -0.101
3 | RRIRPRPPRLPRPRPRPVMFPRP | 0.885
4 | RRIRPRPPRLPRPRPRPVMGPRP | 0.149
5 | RRIRPRPPRLPRPRPRPVPEPRP | 0.0758
6 | RRIRPRPPRLPRPRPRPVPMPRP | 0.0911
7 | RRIRPRPPRLPRPRPRPVPRPRP | 0.531
8 | RRIRPRPPRLPRPRPRPVQGPRP | -0.0469
9 | RRIRPRPPRLPRPRPRPVRDPRP | 0.146
10 | RRIRPRPPRLPRPRPRPVRVPRP | 0.502
11 | RRIRPRPPRLPRPRPRPVTEPRP | -0.027
12 | RRIRPRPPRLPRPRPRPVTSPRP | 0.0344
13 | RRIRPRPPRLPRPRPRPVVFPRP | 0.0396
14 | RRIRPRPPRLPRPRPRPVWIPRP | 0.0152
15 | RRIRPRPPRLPRPRPRPVWSPRP | 0.0634
16 | RRIRPRPPRLPRPRPRPWCKPRP | -0.162
17 | RRIRPRPPRLPRPRPRPWCRPRP | 0.0933
18 | RRIRPRPPRLPRPRPRPWDAPRP | 0.0508
19 | RRIRPRPPRLPRPRPRPWDHPRP | -0.106
20 | RRIRPRPPRLPRPRPRPWEHPRP | -0.0525
21 | RRIRPRPPRLPRPRPRPWEVPRP | -0.0677
22 | RRIRPRPPRLPRPRPRPWFNPRP | -0.541
23 | RRIRPRPPRLPRPRPRPWGFPRP | -0.129
24 | RRIRPRPPRLPRPRPRPWGMPRP | -0.128
25 | RRIRPRPPRLPRPRPRPWHPPRP | -0.227

Row | Sequence | shrunken log2 fold change
26 | RRIRPRPPRLPRPRPRPWHYPRP | 0.0497
27 | RRIRPRPPRLPRPRPRPWIEPRP | -0.162
28 | RRIRPRPPRLPRPRPRPWIVPRP | -0.197
29 | RRIRPRPPRLPRPRPRPWKIPRP | -0.244
30 | RRIRPRPPRLPRPRPRPWLCPRP | 0.106
31 | RRIRPRPPRLPRPRPRPWLMPRP | -0.118
32 | RRIRPRPPRLPRPRPRPWLSPRP | -0.119
33 | RRIRPRPPRLPRPRPRPWNLPRP | -0.365
34 | RRIRPRPPRLPRPRPRPWNTPRP | -0.0902
35 | RRIRPRPPRLPRPRPRPWPKPRP | -0.0311
36 | RRIRPRPPRLPRPRPRPWPYPRP | 0.0948
37 | RRIRPRPPRLPRPRPRPWQTPRP | -0.0715
38 | RRIRPRPPRLPRPRPRPWRLPRP | 0.0836
39 | RRIRPRPPRLPRPRPRPWRMPRP | 0.217
40 | RRIRPRPPRLPRPRPRPWSIPRP | -0.0637
41 | RRIRPRPPRLPRPRPRPWSKPRP | 0.00178
42 | RRIRPRPPRLPRPRPRPWSVPRP | -0.101
43 | RRIRPRPPRLPRPRPRPWTWPRP | -0.0128
44 | RRIRPRPPRLPRPRPRPWWCPRP | -0.258
45 | RRIRPRPPRLPRPRPRPWWWPRP | -0.00448
46 | RRIRPRPPRLPRPRPRPYAEPRP | -0.377
47 | RRIRPRPPRLPRPRPRPYCTPRP | 0.164
48 | RRIRPRPPRLPRPRPRPYECPRP | 0.0143
49 | RRIRPRPPRLPRPRPRPYFEPRP | -0.633
50 | RRIRPRPPRLPRPRPRPYGDPRP | -0.156

Row | Sequence | shrunken log2 fold change
51 | RRIRPRPPRLPRPRPRPYGEPRP | 0.0864
52 | RRIRPRPPRLPRPRPRPYHWPRP | -0.449
53 | RRIRPRPPRLPRPRPRPYHYPRP | -0.84
54 | RRIRPRPPRLPRPRPRPYISPRP | -0.75
55 | RRIRPRPPRLPRPRPRPYKCPRP | -0.0297
56 | RRIRPRPPRLPRPRPRPYKIPRP | -0.227
57 | RRIRPRPPRLPRPRPRPYKWPRP | -0.296
58 | RRIRPRPPRLPRPRPRPYMDPRP | -0.447
59 | RRIRPRPPRLPRPRPRPYMGPRP | -0.659
60 | RRIRPRPPRLPRPRPRPYMIPRP | -0.398
61 | RRIRPRPPRLPRPRPRPYMVPRP | -1.09
62 | RRIRPRPPRLPRPRPRPYNAPRP | -0.608
63 | RRIRPRPPRLPRPRPRPYNEPRP | -0.458
64 | RRIRPRPPRLPRPRPRPYNTPRP | -0.928
65 | RRIRPRPPRLPRPRPRPYPCPRP | -0.134
66 | RRIRPRPPRLPRPRPRPYQVPRP | -0.203
67 | RRIRPRPPRLPRPRPRPYRAPRP | -0.329
68 | RRIRPRPPRLPRPRPRPYREPRP | -0.073
69 | RRIRPRPPRLPRPRPRPYRGPRP | 0.153
70 | RRIRPRPPRLPRPRPRPYTRPRP | -0.853
71 | RRIRPRPPRLPRPRPRPYVDPRP | -0.117
72 | RRIRPRPPRLPRPRPRPYWNPRP | -0.151
73 | RRIRPRPPRLPRPRPRPYWWPRP | 0.0199
74 | RRIRPRPPRLPRPRPRPYYNPRP | -1.11
75 | RRIRPRPPRLPRPRPRPYYPPRP | -0.439

Row | Sequence | shrunken log2 fold change
76 | RRIRPRPPRLPRPRPRPYYVPRP | -1.25
77 | RRIRQRPPRLPRPRPRPACRPRP | -0.0513
78 | RRIRQRPPRLPRPRPRPAFQPRP | 0.0837
79 | RRIRQRPPRLPRPRPRPAGAPRP | 0.666
80 | RRIRQRPPRLPRPRPRPAGVPRP | -0.102
81 | RRIRQRPPRLPRPRPRPAHEPRP | 0.185
82 | RRIRQRPPRLPRPRPRPAHWPRP | 0.261
83 | RRIRQRPPRLPRPRPRPAIFPRP | -0.0662
84 | RRIRQRPPRLPRPRPRPAKFPRP | -0.103
85 | RRIRQRPPRLPRPRPRPAKIPRP | 0.00963
86 | RRIRQRPPRLPRPRPRPALVPRP | 0.297
87 | RRIRQRPPRLPRPRPRPALYPRP | 0.172
88 | RRIRQRPPRLPRPRPRPAMCPRP | 0.171
89 | RRIRQRPPRLPRPRPRPAMIPRP | 0.103
90 | RRIRQRPPRLPRPRPRPANDPRP | -0.103
91 | RRIRQRPPRLPRPRPRPANQPRP | -0.091
92 | RRIRQRPPRLPRPRPRPANSPRP | -0.0568
93 | RRIRQRPPRLPRPRPRPAPFPRP | 0.613
94 | RRIRQRPPRLPRPRPRPAPRPRP | 0.966
95 | RRIRQRPPRLPRPRPRPAQFPRP | 0.237
96 | RRIRQRPPRLPRPRPRPARWPRP | 0.781
97 | RRIRQRPPRLPRPRPRPASVPRP | 0.253
98 | RRIRQRPPRLPRPRPRPATQPRP | 0.176
99 | RRIRQRPPRLPRPRPRPAYLPRP | 0.0774
100 | RRIRQRPPRLPRPRPRPCAKPRP | 0.0917

Row | Sequence | shrunken log2 fold change
101 | RRIRQRPPRLPRPRPRPCCFPRP | 0.0639
102 | RRIRQRPPRLPRPRPRPCCGPRP | 0.0293
103 | RRIRQRPPRLPRPRPRPCCIPRP | -0.159
104 | RRIRQRPPRLPRPRPRPCCLPRP | -0.0936
105 | RRIRQRPPRLPRPRPRPCCRPRP | -0.0851
106 | RRIRQRPPRLPRPRPRPCDNPRP | -0.269
107 | RRIRQRPPRLPRPRPRPCDPPRP | -0.0819
108 | RRIRQRPPRLPRPRPRPCEVPRP | -0.00192
109 | RRIRQRPPRLPRPRPRPCFPPRP | 0.121
110 | RRIRQRPPRLPRPRPRPCGHPRP | 0.0101
111 | RRIRQRPPRLPRPRPRPCGNPRP | 0.0751
112 | RRIRQRPPRLPRPRPRPCIHPRP | -0.734
113 | RRIRQRPPRLPRPRPRPCMYPRP | -0.166
114 | RRIRQRPPRLPRPRPRPCNFPRP | 0.0393
115 | RRIRQRPPRLPRPRPRPCPCPRP | -0.354
116 | RRIRQRPPRLPRPRPRPCQYPRP | -0.00191
117 | RRIRQRPPRLPRPRPRPCRRPRP | 0.00897
118 | RRIRQRPPRLPRPRPRPCSHPRP | 0.0226
119 | RRIRQRPPRLPRPRPRPCSNPRP | -0.174
120 | RRIRQRPPRLPRPRPRPCTKPRP | 0.00259
121 | RRIRQRPPRLPRPRPRPCVMPRP | -0.149
122 | RRIRQRPPRLPRPRPRPDCYPRP | -0.304
123 | RRIRQRPPRLPRPRPRPDDSPRP | -0.139
124 | RRIRQRPPRLPRPRPRPDFLPRP | -0.338
125 | RRIRQRPPRLPRPRPRPDGSPRP | -0.0176

Row | Sequence | shrunken log2 fold change
126 | RRIRQRPPRLPRPRPRPDHMPRP | 0.0119
127 | RRIRQRPPRLPRPRPRPDHPPRP | -0.0816
128 | RRIRQRPPRLPRPRPRPDKIPRP | -0.00225
129 | RRIRQRPPRLPRPRPRPDLGPRP | 0.0039
130 | RRIRQRPPRLPRPRPRPDPEPRP | -0.202
131 | RRIRQRPPRLPRPRPRPDQEPRP | 0.0119
132 | RRIRQRPPRLPRPRPRPDQFPRP | 0.133
133 | RRIRQRPPRLPRPRPRPDRHPRP | -0.182
134 | RRIRQRPPRLPRPRPRPDRYPRP | 0.0513
135 | RRIRQRPPRLPRPRPRPDSLPRP | -0.0756
136 | RRIRQRPPRLPRPRPRPDTEPRP | 0.0371
137 | RRIRQRPPRLPRPRPRPDTMPRP | 0.0515
138 | RRIRQRPPRLPRPRPRPDTSPRP | 0.00601
139 | RRIRQRPPRLPRPRPRPDTWPRP | -0.197
140 | RRIRQRPPRLPRPRPRPDVAPRP | -0.116
141 | RRIRQRPPRLPRPRPRPEARPRP | -0.00982
142 | RRIRQRPPRLPRPRPRPECPPRP | 0.184
143 | RRIRQRPPRLPRPRPRPECQPRP | -0.0746
144 | RRIRQRPPRLPRPRPRPEFNPRP | -0.0823
145 | RRIRQRPPRLPRPRPRPEIQPRP | 0.0108
146 | RRIRQRPPRLPRPRPRPEIRPRP | 0.0114
147 | RRIRQRPPRLPRPRPRPEMFPRP | -0.118
148 | RRIRQRPPRLPRPRPRPEMTPRP | 0.0231
149 | RRIRQRPPRLPRPRPRPEPQPRP | 0.00762
150 | RRIRQRPPRLPRPRPRPEQAPRP | 0.378
